From patent US20260028391A1

Tests used:
[1] = target: MPV fusion glycoprotein without the D280N mutation (MPV-F D280) (metapneumovirus); assay: SPR; F protein loaded on streptavidin sensors, mAb in solution
[2] = target: MPV fusion glycoprotein with the D280N mutation (MPV-F N280) (metapneumovirus); assay: as above
[3] = target: fusion glycoprotein of the RSV used in the neutralization assay of Example 1 (respiratory syncytial virus (strain not stated)); assay: cell-based or functional assay
[4] = target: fusion glycoprotein of the MPV D280 used in the neutralization assay of Example 3 (metapneumovirus (strain not stated)); assay: cell-based or functional assay
[5] = target: RSV fusion glycoprotein (RSV-F) (respiratory syncytial virus (strain not stated)); assay: SPR; sensors loaded with RSV-F, mAb in solution (Experiment 2)

Row | Binder | Kd [1] | Kd [2] | RSV Neutralization - IC50 [3] | MPV D280 Neutralization - IC50 [4] | Kd [5]
1 | MPK150-v2 (antibody, V domains shown) VH: EVQLVESGGGLVKPGGSLRLSCEASGISLSGYYMIWIRQAPGKGLEWISSISGSSTYIDYADSVRGRFTISRHNGQNTIYLQMNSLRVEDTAVYFCATEQTPSPGPFELWGRGILVTVSS VL: QSVLTQPPSVSGAPGQRVTIFCTGTSSNIGTGYDVHWYQQFPGTSPKLLIFRNSNRPSGVPDRFSGSKSGSSASLAIAGLQAEDEADYYCQSYDRGVNGWVFGGGTKLTVL | 0.001 nM | 0.58 nM | 0.0147 µg/mL | 0.0158 µg/mL | –
2 | MPK144 (antibody, V domains shown) VH: EVQLVESGGGLVRPGGSLRLSCAASGFTFTGYYMMWIRQAPGKGLEWISDISSSSSYTNYADSVKGRFAISRDNAQNTLYLQMNSLRAEDTAVYYCATEQVPSPGPFDLWGQGTLVTVSS VL: QSVLTQPPSVSGAPGQRVTISCTGSSSNFGAGYDVHWYQQFPGTSPKLLIYRNTNRPSGVPDRFSGSKSGTSASLAITGLQAEDEADYYCQSYDRSLTGWVFGGGTKLTVL | 0.81 nM | 100 nM | 0.0082 µg/mL | 0.0049 µg/mL | –
3 | MPK155 (antibody, V domains shown) VH: EVQLVESGGGLVKPGGSLRLSCEASGISLSGYYMIWIRQAPGKGLEWISSISSSSNYIDYADSVRGRFTISRHNGQNTLYLQMNSLRVEDTAVYFCATEQTPSPGPFDLWGQGILVTVSS VL: QSVLTQPPSVSGAPGQRVTIFCTGTSSNLGAGYDVHWYQQFPGTSPKLLIYRYTNRPSGVPDRFSGSKSGSSASLAIAGLQAEDEADYYCQSYDRSVSGWVFGGGTKLTVL | 0.001 nM | 2.6 nM | 0.0265 µg/mL | 0.0141 µg/mL | –
4 | MPK149 (antibody, V domains shown) VH: QVQLVESGGGLVKPGGSLRLSCEASGFTISGYFMIWIRQAPGKGLEWISSISGSSTYTDYAESVKGRFTISRDNGRSTLYLQMNSLRVEDTAVYYCATEQTPSPGPFDLWGQGTLVTVSS VL: QSVVTQPPSVSGAPGQRVTISCTGTSSNIGAGYDVHWYQQFPGTSPRLLINRNTNRPSGVPDRFSGSQSGSSASLAIAGLQAEDEADYYCQSYDRSVSGWVFGGGTKLTVL | 0.001 nM | 0.4 nM | 0.0335 µg/mL | 0.0192 µg/mL | –
5 | MPK151 (antibody, V domains shown) VH: EVQLVESGGGLVKPGGSLRLSCAASGLTISGYYMIWIRQAPGKGLEWISDISASSTYTDYAESVKGRFSISRDNGQNTVYLQMNSLRAEDTAVYYCATEQTPSPGPFDLWGQGTLVTVSS VL: QSVLTQPPSVSGAPGQKITISCTGGSSNFGAGYDVHWYQQFPGTSPKLLIYRNTFRPSGVPDRFSGSKSGTSASLAITGLQAEDEADYYCQSYDRSLSGWVFGGGTKLTVL | 0.001 nM | 0.27 nM | 0.0375 µg/mL | 0.0178 µg/mL | –
6 | MPK152 (antibody, V domains shown) VH: EVQLVESGGGLVKPGGSLRLSCAASGLTISGYYMIWIRQAPGKGLEWISYISGSSSYTNYADSVKGRFTISRDNGQNTLFLQMDSLRVEDTAVYFCATEETPSPGPFGLWGQGTLVTVSS VL: QSVVTQPPSVSGAPGQRVTISCTGTSSNIGAGYDVHWYQQFPGTSPKLLIFRNTNRPSGVPDRFSGSTSGSSASLAITGLQTEDEADYYCQSYDRSLDGWVFGGGTELTVL | 0.001 nM | 0.069 nM | 0.0308 µg/mL | 0.0152 µg/mL | –
7 | MPK132-v1 (antibody, V domains shown) VH: EVQLVESGGGLVKPGGSLRLSCEASGISLSGYYMIWIRQAPGKGLEWISSISSSSNYIDYADSVKGRFTISRHNGQNTLYLQMNSLRVEDTAVYFCATEQTPSPGPFELWGQGILVTVSS VL: QSVVTQPPSVSGAPGQRVTIFCTGTSSNIGTGYDVHWYQQFPGTSPKLLIYRNTNRPSGVPDRFSGSKSGSSASLAIAGLQAEDEADYYCQSYDRSVSGWVFGGGTKLTVL | 0.001 nM | 4.3 nM | 0.018 µg/mL | 0.0101 µg/mL | –
8 | MPK129 (antibody, V domains shown) VH: EVQLVESGGGLVKPGGSLRLSCEASGFSLSGYYMIWIRQAPGKGLEWISSISGSGNYIDYADSVKGRFTISRDNGHNTLYLQMNSLRVEDTAVYYCATEQTPSPGPFDHWGQGTLVTVSS VL: QTVVTQPPSVSGAPGQRVTISCTGTSSNIGTGYDVHWYQQFPGTSPKLLIYRNTNRPSGVPDRFSGSKSGSSASLAIAGLQAEDEADYYCQSYDRSVSGWVFGGGTKLTVL | 0.001 nM | 1.9 nM | 0.0149 µg/mL | 0.0081 µg/mL | –
9 | MPK153 (antibody, V domains shown) VH: EVHLVESGGGLVKPGGSLRLSCAASGFTFTGYFMIWIRQAPGKGLEWISYISSSSNYINYADSVKGRFTISRDNGQNTLYLQMNSLRPDDTAVYYCATEQVPSPGPFDLWGQGTLVTVSS VL: QSVLTQPPSVSGAPGQRVIISCTGTSSNIGAGYDVHWYQQFPGASPKLLIFRNTDRPSGVPDRFSGSKSGSSASLAIAGLQAEDEADYYCQSYDRSLDGWVFGGGTKVTVL | 0.001 nM | 5.5 nM | 0.0296 µg/mL | 0.0199 µg/mL | –
10 | MPK126 (antibody, V domains shown) VH: EVQLVESGGGLVKPGGSMRLSCAASGVTLSGYYMIWIRQAPGKGLEWISDISASSTYTDYADSVKGRFTVSRDNSQNTVYLQMNSLRAEDTAVYYCATEQTPSPGPFDLWGQGTLVTVSS VL: QSVLTQPPSVSGAPGQRVTISCTGSSSNVGAGYDVHWYQQFPGTSPKLLIYRNTNRPSGVPDRFSGFKSGTSASLAITGLEAEDEADYYCQSYDRSLSGWVFGAGTKLTVL | 0.001 nM | 0.21 nM | 0.0264 µg/mL | 0.0236 µg/mL | –
11 | MPK177 (antibody, V domains shown) VH: EVQLVQSGAEVKKPGESLKISCQVSGYSFMNYWVGWVRQMPGKGLEWMGIIYPFDSDTIYSPSFQGHVTISADTSITTAYLHWSSLKASDTATYYCARFTFGIAVVADGLSGDGEAFDIWGQGTVVTVSS VL: DIVMTQTPATLSVSPGERATLSCRASQSVAGKLAWYQQRPGQTPRLLIYGASTRATGVPARFSGSGSETEFTLTISSLQSEDFAVYYCQQYSSWPHAFGQGTRLDIK | – | – | 0.001 µg/mL | – | 0.001 nM
12 | MPK171-v1 (antibody, V domains shown) VH: QVQLVQSGAEVKKPGESLKISCKGSGYSFINYWIGWVRQMPGKGLEWMGIIYPFDSDTKYSPSFQGHVTISADKSINTAYVQWSSLKASDTAMYYCARFTFGIAVVTDDVSGEGHAFDIWGQGTMVTVSS VL: QSVLTQPPSVSGAPGQRVTISCAGSSSNIGAGFDVHWYQQVPGTAPKLLIYNTDNRASGVPDRFSASKSGTSASLAITGLQAEDEADYYCQSYDNSLSGVFGGGTKLTVL | – | – | 0.0043 µg/mL | – | 1.2 nM
13 | MPK182 (antibody, V domains shown) VH: EVQLVESGGGLVKPGGSLRLSCTASLSTFSDYYMTWIRQAPGKGLEWLGYISGSQSQTNLADSVKGRFTISRDNAKKSLYLQMNSLRVEDTATYFCARVHLWFGDLNALDLWGQGTKVTVSS VL: QSVLTQPPSVSGAPGQRVTISCAGSSSNIGAGFDVHWYQQVPGTAPKLLIYNTDNRASGVPDRFSASKSGTSAFLAITGLQAEDEADYYCQSYDNSLSGVFGGGTKLTVL | – | – | – | – | 2.8 nM
14 | MPK167 (antibody, V domains shown) VH: EVQLVQSGPEVKKPGESLKISCKASGYSFINYWIGWVRQMPGKGLEWMGIIYPFDSDTQYSPSFQGHVTISADKSINTAYVQWSSLKASDTAMYYCARFTFGIAVVAGDVSGEGHAFDIWGQGTMVTVSS VL: EIVMMQSPATLSVSPGERATLSCRASQSVAGNLAWYQQSPGQAPRLLIYGASTRATGVPARFSGSGSETEFTLTISSLQSEDFAVYFCQQYSNWPHAFGQGTRLDIK | – | – | 0.001 µg/mL | – | 0.011 nM
15 | MPK157 (antibody, V domains shown) VH: EVQLVESGGGLVKPGGSLRLSCSASGFTLSGYNMNWVRQAPGKGLEWISYISASSSYINYADSVKGRFTISRDNGRSSLYLQMNSLRAEDTAVYFCTTQAELPGWFDPWGQGTLVTVSS VL: QSVLTQPPSMSGAPGQRVTISCTGSSSNIGAGYDVNWYRQLPGTAPQLLIYRNTNRPSGVPDRFSGSNSGTSASLAITGLQADDEAHYYCQSYDRSLSGWVFGGGTKLTVL | 0.001 nM | 1.2 nM | 0.0241 µg/mL | 0.0079 µg/mL | –
16 | MPK145 (antibody, V domains shown) VH: EVQLVESGGGLVEPGGSLRLSCAASGFTISGYGMSWVRQAPGKGLEWVSSISASSSYIYYGDAMKGRITISRDNGWNSMYLQMNSLRTEDTAVYYCATAPIEPPYFDLWGRGTLVTVSS VL: QSVVTQPPSVSGAPGQRVTISCTGSSSNIGAGYDVHWYQQFPGKAPKVLIYGNNNRPSGVPDRFAASNSGASASLAITGLQAEDEAAYFCQSYDRRLSGPVFGGGTKLTVL | 0.001 nM | 0.85 nM | 0.0239 µg/mL | 0.0078 µg/mL | –
17 | MPK169-v2 (antibody, V domains shown) VH: EVQLVQSGAEVKKPGESLTISCQTSGYSFINYWIGWVRQMPGKGLEWMGVIYPFDSDTEYSPSFRGHVTISADKSINTAYLQWNSLGASDTAMYYCARFTFGIALVSGDVNGEGHAFDVWGRGTLVTVSS VL: EIVLTQSPPTLSVSPGQRATLSCRASQSVADKLAWYQQRPGQAPRLLIYGASSRATGVPARFSGSGSETEFTLTITSLQSEDFALYYCHQYNNWPHAFGQGTRLVIK | – | – | – | – | 0.62 nM
18 | MPK127 (antibody, V domains shown) VH: QVQLVISGGGLVKPGGSLRLSCAASGFRIDSFSLNWVRQAPGKGLEWLASVSASSSYIDYRDSVAGRFTISRDNAQNSLYLQMDTLRAEDTAVYYCARTNGYETGSFDVWGQGTLVTVAS VL: QSVLTQPPSVSGAPGQRVTISCTGSSSNIGAGYDVHWYQQLPGKAPKLLINANNNRPSGVPDRFSGSNSGTSASLAITGLQAEDEADYYCQSYDKTLSGYVFGLGTTVTVL | 0.001 nM | 0.001 nM | 0.0787 µg/mL | 0.0243 µg/mL | –
